B1: Csk (murine) immunoprecipitated from mouse brain (protein)
chain: SAIQAAWPSGTECIAKYNFHGTAEQDLPFCKGDVLTIVAVTKDPNWYKAKNKVGREGIIPANYVQKREGVKAGTKLSLMPWFHGKITREQAERLLYPPETGLFLVRESTNYPGDYTLCVSCEGKVEHYRIMYHASKLSIDEEVYFENLMQLVEHYTTDADGLCTRLIKPKVMEGTVAAQDEFYRSGWALNMKELKLLQTIGKGEFGDVMLGDYRGNKVAVKCIKNDATAQAFLAEASVMTQLRHSNLVQLLGVIVEEKGGLYIVTEYMAKGSLVDYLRSRGRSVLGGDCLLKFSLDVCEAMEYLEGNNFVHRDLAARNVLVSEDNVAKVSDFGLTKEASSTQDTGKLPVKWTAPEALREKKFSTKSDVWSFGILLWEIYSFGRVPYPRIPLKDVVPRVEKGYKMDAPDGCPPAVYEVMKNCWHLDAATRPTFLQLREQLEHIKTHELHL
Consider B1, for which the “in vitro kinase assay of immunoprecipitates (32P incorporation into substrate)” value with enolase is “both kinases phosphoylated the C-terminal scr peptide, enolase and poly Glu/Try to similar degrees”; with C-terminal src peptide, “both kinases phosphoylated the C-terminal scr peptide, enolase and poly Glu/Try to similar degrees”.

B2: CHK (murine Ctk) immunoprecipitated from mouse brain (protein)
chain: MARRSSRVSWLAFEGWESRDLPRVSPRLFGAWHPAPAAARMPTRWAPGTQCMTKCENSRPKPGELAFRKGDMVTILEACEDKSWYRAKHHGSGQEGLLAAAALRHGEALSTDPKLSLMPWFHGKISGQEAIQQLQPPEDGLFLVRESARHPGDYVLCVSFGRDVIHYRVLHRDGHLTIDEAVCFCNLMDMVEHYTKDKGAICTKLVKPRRKQGAKSAEEELAKAGWLLDLQHLTLGAQIGEGEFGAVLQGEYLGQKVAVKNIKCDVTAQAFLDETAVMTKLQHRNLVRLLGVILHHGLYIVMEHVSKGNLVNFLRTRGRALVSTSQLLQFALHVAEGMEYLESKKLVHRDLAARNILVSEDLVAKVSDFGLAKAERKGLDSSRLPVKWTAPEALKNGRFSSKSDVWSFGVLLWEVFSYGRAPYPKMSLKEVSEAVEKGYRMEPPDGCPGSVHTLMGSCWEAEPARRPPFRKIVEKLGRELRSVGVSAPAGGQEAEGSAPTRSQDP
As to B2, the “in vitro kinase assay of immunoprecipitates (32P incorporation into substrate)” value with enolase is “both kinases phosphoylated the C-terminal scr peptide, enolase and poly Glu/Try to similar degrees”; with C-terminal src peptide, “both kinases phosphoylated the C-terminal scr peptide, enolase and poly Glu/Try to similar degrees”.

These data come from US20030181404.
